Laboratory results: the supplement of paper PMC10598134
± gives the standard deviation.

Assay: collision cross section of modified peptide (TIMS, N2, iRT-aligned); higher = larger / more extended gas-phase ion
Procedure, shortened: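 Values are averages of 1–3 technical replicates of the most abundant feature for each charge state. Collision cross section was obtained from the Mason-Schamp equation after 1/K0 calibration with three reference ions and run-wise alignment to the median iRT peptide deviation. Synthetic peptide pools (iRT standard spiked 1:40) were separated on a 120-min nanoflow C18 gradient at 60 °C, analysed on a timsTOF Pro/HT (dda-PASEF, nitrogen, ~2.4 mbar) and identified with MaxQuant.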

[1] = charge state: 2, modification: hydroxyisobutyryl
[2] = charge state: 3, modification: hydroxyisobutyryl
[3] = charge state: 2, modification: Acetyl (K)
[4] = charge state: 3, modification: Acetyl (K)
[5] = charge state: 3, modification: Biotin
[6] = charge state: 2, modification: Butyryl
[7] = charge state: 3, modification: Butyryl
[8] = charge state: 2, modification: Crotonyl
[9] = charge state: 3, modification: Crotonyl
[10] = charge state: 3, modification: Dimethyl (K)
[11] = charge state: 2, modification: Formyl
[12] = charge state: 3, modification: Formyl
[13] = charge state: 2, modification: Glutarylation
[14] = charge state: 2, modification: GlyGly (K)
[15] = charge state: 3, modification: GlyGly (K)
[16] = charge state: 2, modification: Malonyl
[17] = charge state: 2, modification: Methyl (K)
[18] = charge state: 3, modification: Methyl (K)
[19] = charge state: 2, modification: Succinyl
[20] = charge state: 2, modification: Trimethyl (K)
[21] = charge state: 3, modification: Trimethyl (K)
[22] = charge state: 2, modification: Biotin
[23] = charge state: 2, modification: Dimethyl (K)

Question: With “SITHSTVGSKGEK [_SITHSTVGSK(hydroxyisobutyryl)GEK_]” as the sequence, how does the collision cross section [1] read?
Answer: The collision cross section was 401.03 ± 1.4 Å².

Question: What about the collision cross section [2] of the same sequence?
Answer: The collision cross section was 446.16 ± 2.7 Å².

Question: Which results are given for “SKHLQEQLNELK [_SK(Acetyl (K))HLQEQLNELK_]”?
Answer: collision cross section [3]: 415.42 ± 1.7 Å²; collision cross section [4]: 483.11 ± 1.6 Å²

Question: Which collision cross section [5] does the source give for SKHLQEQLNELK [_SK(Biotin)HLQEQLNELK_] here?
Answer: Its collision cross section is 520.89 Å².

Question: Which collision cross section [6] does the source give for SKHLQEQLNELK [_SK(Butyryl)HLQEQLNELK_] here?
Answer: Its collision cross section is 422.39 ± 0.24 Å².

Question: What about the collision cross section [7] of the same sequence?
Answer: The collision cross section was 490.06 ± 2.9 Å².

Question: Which collision cross section [8] does the source give for SKHLQEQLNELK [_SK(Crotonyl)HLQEQLNELK_] here?
Answer: The collision cross section was 421.79 ± 0.28 Å².

Question: And the collision cross section [9]?
Answer: Its collision cross section is 491.86 ± 3.7 Å².

Question: Which collision cross section [10] does the source give for “SKHLQEQLNELK [_SK(Dimethyl (K))HLQEQLNELK_]” here?
Answer: Its collision cross section is 492.51 ± 0.54 Å².

Question: Which collision cross section [11] does the source give for SKHLQEQLNELK [_SK(Formyl)HLQEQLNELK_] here?
Answer: The collision cross section was 412.77 ± 0.19 Å².

Question: What about the collision cross section [12] of the same sequence?
Answer: Its collision cross section is 477.47 ± 2.1 Å².

Question: With “SKHLQEQLNELK [_SK(Gluratylation)HLQEQLNELK_]” as the sequence, how does the collision cross section [13] read?
Answer: The collision cross section was 423.49 ± 0.97 Å².

Question: What about the collision cross section (charge state: 3, modification: Glutarylation) of the same sequence?
Answer: The collision cross section was 496.16 ± 2 Å².

Question: Which collision cross section [14] does the source give for “SKHLQEQLNELK [_SK(GlyGly (K))HLQEQLNELK_]” here?
Answer: The collision cross section was 420.45 ± 1.4 Å².

Question: What about the collision cross section [15] of the same sequence?
Answer: Its collision cross section is 495.28 ± 2 Å².

Question: For SKHLQEQLNELK [_SK(Malonyl)HLQEQLNELK_], which collision cross section [16] is on record?
Answer: The collision cross section was 415.64 Å².

Question: And the collision cross section (charge state: 3, modification: Malonyl)?
Answer: Its collision cross section is 480.76 ± 0.91 Å².

Question: Which collision cross section [17] does the source give for “SKHLQEQLNELK [_SK(Methyl (K))HLQEQLNELK_]” here?
Answer: Its collision cross section is 411.32 ± 1.9 Å².

Question: What about the collision cross section [18] of the same sequence?
Answer: Its collision cross section is 492.52 ± 1.8 Å².

Question: Which collision cross section [19] does the source give for SKHLQEQLNELK [_SK(Succinyl)HLQEQLNELK_] here?
Answer: The collision cross section was 419.21 ± 1.5 Å².

Question: What about the collision cross section (charge state: 3, modification: Succinyl) of the same sequence?
Answer: The collision cross section was 481.12 ± 2 Å².

Question: For “SKHLQEQLNELK [_SK(Trimethyl (K))HLQEQLNELK_]”, which collision cross section [20] is on record?
Answer: Its collision cross section is 417.87 Å².

Question: What about the collision cross section [21] of the same sequence?
Answer: Its collision cross section is 506.13 ± 1.6 Å².

Question: Which collision cross section [1] does the source give for “SKHLQEQLNELK [_SK(hydroxyisobutyryl)HLQEQLNELK_]” here?
Answer: The collision cross section was 425.52 ± 0.81 Å².

Question: What about the collision cross section [2] of the same sequence?
Answer: Its collision cross section is 492.58 ± 2.1 Å².

Question: Which collision cross section [3] does the source give for “SKLLFSNTAAQK [_SK(Acetyl (K))LLFSNTAAQK_]” here?
Answer: Its collision cross section is 396.66 ± 1.3 Å².

Question: Which collision cross section [22] does the source give for SKLLFSNTAAQK [_SK(Biotin)LLFSNTAAQK_] here?
Answer: Its collision cross section is 417.26 ± 2.9 Å².

Question: Which collision cross section [6] does the source give for SKLLFSNTAAQK [_SK(Butyryl)LLFSNTAAQK_] here?
Answer: The collision cross section was 402.3 ± 1.3 Å².

Question: For SKLLFSNTAAQK [_SK(Crotonyl)LLFSNTAAQK_], which collision cross section [8] is on record?
Answer: Its collision cross section is 402.06 ± 0.79 Å².

Question: Which collision cross section [23] does the source give for “SKLLFSNTAAQK [_SK(Dimethyl (K))LLFSNTAAQK_]” here?
Answer: The collision cross section was 389.15 Å².

Question: For SKLLFSNTAAQK [_SK(Formyl)LLFSNTAAQK_], which collision cross section [11] is on record?
Answer: Its collision cross section is 390.83 ± 0.41 Å².

Question: For “SKLLFSNTAAQK [_SK(Gluratylation)LLFSNTAAQK_]”, which collision cross section [13] is on record?
Answer: Its collision cross section is 403.03 ± 0.5 Å².

Question: With “SKLLFSNTAAQK [_SK(GlyGly (K))LLFSNTAAQK_]” as the sequence, how does the collision cross section [14] read?
Answer: The collision cross section was 396.71 ± 0.37 Å².

Question: What about the collision cross section [15] of the same sequence?
Answer: Its collision cross section is 447.27 ± 13 Å².

Question: Which collision cross section [16] does the source give for SKLLFSNTAAQK [_SK(Malonyl)LLFSNTAAQK_] here?
Answer: The collision cross section was 394.73 ± 0.61 Å².

Question: With “SKLLFSNTAAQK [_SK(Methyl (K))LLFSNTAAQK_]” as the sequence, how does the collision cross section [17] read?
Answer: The collision cross section was 387.94 ± 0.83 Å².

Question: What about the collision cross section [18] of the same sequence?
Answer: The collision cross section was 461.44 ± 4.6 Å².

Question: Which collision cross section (charge state: 2, modification: Propionyl) does the source give for “SKLLFSNTAAQK [_SK(Propionyl)LLFSNTAAQK_]” here?
Answer: Its collision cross section is 398.2 ± 1.4 Å².

Question: Which collision cross section [19] does the source give for SKLLFSNTAAQK [_SK(Succinyl)LLFSNTAAQK_] here?
Answer: The collision cross section was 398.22 ± 0.77 Å².

Question: For “SKLLFSNTAAQK [_SK(Trimethyl (K))LLFSNTAAQK_]”, which collision cross section [20] is on record?
Answer: The collision cross section was 395.61 ± 0.017 Å².

Question: And the collision cross section [21]?
Answer: Its collision cross section is 446.07 ± 2.4 Å².

Question: With “SKLLFSNTAAQK [_SK(hydroxyisobutyryl)LLFSNTAAQK_]” as the sequence, how does the collision cross section [1] read?
Answer: The collision cross section was 404.35 ± 0.3 Å².

Question: For “SLEEEGAAHSGKR [_SLEEEGAAHSGK(Acetyl (K))R_]”, which collision cross section [3] is on record?
Answer: The collision cross section was 412.49 ± 2.4 Å².

Question: And the collision cross section [4]?
Answer: The collision cross section was 476.34 ± 2.4 Å².

Question: For SLEEEGAAHSGKR [_SLEEEGAAHSGK(Biotin)R_], which collision cross section [22] is on record?
Answer: The collision cross section was 428.85 Å².

Question: What about the collision cross section [5] of the same sequence?
Answer: Its collision cross section is 493.19 Å².

Question: With “SLEEEGAAHSGKR [_SLEEEGAAHSGK(Butyryl)R_]” as the sequence, how does the collision cross section [6] read?
Answer: The collision cross section was 418.69 ± 0.77 Å².

Question: And the collision cross section [7]?
Answer: Its collision cross section is 478.81 ± 1.8 Å².

Question: For “SLEEEGAAHSGKR [_SLEEEGAAHSGK(Crotonyl)R_]”, which collision cross section [8] is on record?
Answer: Its collision cross section is 420.35 ± 1.1 Å².

Question: What about the collision cross section [9] of the same sequence?
Answer: Its collision cross section is 486.66 ± 11 Å².

Question: Which collision cross section [23] does the source give for “SLEEEGAAHSGKR [_SLEEEGAAHSGK(Dimethyl (K))R_]” here?
Answer: The collision cross section was 412.8 ± 3 Å².

Question: What about the collision cross section [10] of the same sequence?
Answer: The collision cross section was 453.89 ± 1.2 Å².

Question: Which results are given for SLEEEGAAHSGKR [_SLEEEGAAHSGK(Formyl)R_]?
Answer: collision cross section [11]: 409.43 ± 1.8 Å²; collision cross section [12]: 472.26 ± 2.9 Å²
